These results are taken from patent US20190194322A1 (BIO TECHNE, published 2019).

The labels stand for the following.
T1: VSIG8 ectodomain coupled to pentamerizing rat COMP helix and alkaline phosphatase (AVEXIS prey) (rat, UniProt P0DPA2 22-263; P35444 28-72)
T1 construct: not shown: alkaline phosphatase enzyme
T1 sequence (looked up): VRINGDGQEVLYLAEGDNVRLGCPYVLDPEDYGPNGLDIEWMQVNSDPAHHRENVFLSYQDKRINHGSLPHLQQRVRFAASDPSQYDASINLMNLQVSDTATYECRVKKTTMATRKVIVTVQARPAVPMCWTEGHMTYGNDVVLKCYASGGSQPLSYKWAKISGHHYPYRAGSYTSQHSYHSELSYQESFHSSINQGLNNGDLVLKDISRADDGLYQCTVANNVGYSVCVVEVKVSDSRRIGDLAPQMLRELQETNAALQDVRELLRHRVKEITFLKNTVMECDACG

T2: VSIG3 ectodomain coupled to pentamerizing rat COMP helix and alkaline phosphatase (AVEXIS prey) (rat, UniProt Q5DX21 23-241; P35444 28-72)
T2 construct: used as conditioned medium; also called VSIG3 oligomer as prey; penta-VSIG3; not shown: alkaline phosphatase enzyme
T2 sequence (looked up): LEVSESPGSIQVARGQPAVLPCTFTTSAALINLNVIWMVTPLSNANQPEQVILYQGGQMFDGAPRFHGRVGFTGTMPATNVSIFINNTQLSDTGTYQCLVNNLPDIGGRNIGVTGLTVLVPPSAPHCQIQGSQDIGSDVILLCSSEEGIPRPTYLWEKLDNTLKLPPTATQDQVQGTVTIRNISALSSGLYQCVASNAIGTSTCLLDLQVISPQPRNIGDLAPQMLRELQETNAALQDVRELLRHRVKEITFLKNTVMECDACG

B1: Recombinant human VSIG3 Fc Chimera (Fc fusion)
chain: LEVSESPGSIQVARGQTAVLPCTFTTSAALINLNVIWMVTPLSNANQPEQVILYQGGQMFDGAPRFHGRVGFTGTMPATNVSIFINNTQLSDTGTYQCLVNNLPDIGGRNIGVTGLTVLVPPSAPHCQIQGSQDIGSDVILLCSSEEGIPRPTYLWEKLDNTLKLPPTATQDQVQGTVTIRNISALSSGLYQCVASNAIGTSTCLLDLQVISPQPRNIGLIAGIEGRMDPKSCDKTHTCPPCPAPEAEGAPSVFLFPPKPKDTLMISRTPEVTCVVVDVSHEDPEVKFNWYVDGVEVHNAKTKPREEQYNSTYRVVSVLTVLHQDWLNGKEYKCKVSNKALPAPIEKTISKAKGQPREPQVYTLPPSRDELTKNQVSLTCLVKGFYPSDIAVEWESNGQPENNYKATPPVLDSDGSFFLYSKLTVDKSRWQQGNVFSCSVMHEALHNHYTQKSLSLSPGK
notes: also called rhVSIG3; rhVSIG-3
B2: mouse anti-human VSIG3 monoclonal antibody from clone #973401 (antibody, IgG1, V domains shown)
VH: QVQLQQSAAELARPGASVKMSCKASGYTFATYTIHWVKQRPGQGLEWIGYINPSSGYTEYNQKFKDKTTLTADKSSSTAYMQLSSLTSEDSAVYYCARREVYGSGSMDYWGQGTSVTVSS
VL: QIVLTQSPALMSASPGEKVTMTCSASSSVSFMYWYHQKPRSSPKPWIYLTSNLASGVPARFSGSGSGTSYSLTISSMEAEDAATYYCQQWSSNPLTFGAGTKLELKR
notes: also called fusion 9734 clone 1
B3: mouse anti-human VSIG3 monoclonal antibody from clone #973428 (antibody, IgG1, V domains shown)
VH: EVQLVESGGDLVKPGGSLKLSCAASGFTFNSYGMSWVRQTPDKRLEWVAIISSGGSYTYYPDSVKGRFTISRDNAKNTLYLQMSSLKSEDTAMYYCARLSYYYGSSPYAMDYWGQGTSVTISS
VL: DIVLTQSPASLAVSLGQRATISCRASKSVSTSGYSYMHWYQQKPGQSPKLLIYLASNLESGVPARCSGSGSGTDFTLNIHPVEEEDAATYYCQHSRELPYTFGGGTKLEIKR
notes: also called fusion 9734 clone 28
B4: VSIG8 Fc-fusion (AVEXIS bait) (Fc fusion, UniProt P0DPA2 22-263, looked up)
chain: VRINGDGQEVLYLAEGDNVRLGCPYVLDPEDYGPNGLDIEWMQVNSDPAHHRENVFLSYQDKRINHGSLPHLQQRVRFAASDPSQYDASINLMNLQVSDTATYECRVKKTTMATRKVIVTVQARPAVPMCWTEGHMTYGNDVVLKCYASGGSQPLSYKWAKISGHHYPYRAGSYTSQHSYHSELSYQESFHSSINQGLNNGDLVLKDISRADDGLYQCTVANNVGYSVCVVEVKVSDSRRIG
notes: extracellular domain; not shown: Fc

Assay [1] concerns the target T3, PD1 ectodomain coupled to pentamerizing rat COMP helix and alkaline phosphatase (AVEXIS prey) (rat, UniProt Q15116 25-170; P35444 28-72).
T3 construct: not shown: alkaline phosphatase enzyme
The assay can be described thus: AVEXIS, VSIG3 Fc-fusion bait, PD1-COMP-AP prey (FIG. 12B). An excerpt:
(§1) FIG. 12B AVEXIS was used to screen interactions between VISTA and VSIG3, VSIG8, and PD1, and results were quantified by measuring absorbance at 650 nm using the alkaline phosphatase reagent BluePhos. […] FIG. 12C.
(§2) The ectodomains of VSIG3, VISTA, and other immunoregulatory receptors were cloned into a construct containing the rat cartilage oligomeric matrix protein (COMP), which forms a covalent, pentameric coiled-coil helix oligomer (Malashkevich et al. Science. 274 (1996) 761-5), followed by an alkaline phosphatase enzyme for detection. […] Conditioned media containing the oligomeric prey protein fused to the COMP helical oligomer and alkaline phosphatase was incubated and washed, and the interaction was quantitatively measured by detection of alkaline phosphatase activity using the BLUEPHOS reagent (KPL/Sera Care, Milford, Mass.).

For assay [2], the target named is T1, VSIG8 ectodomain coupled to …. The assay can be described thus: AVEXIS, VSIG3 Fc-fusion bait, VSIG8-COMP-AP prey (FIG. 12B).
Description: as §1, §2

For assay [3], the target named is T4, Recombinant human VISTA Fc Chimera (human (homo sapiens)).
T4 construct: also called rhVISTA; VISTA-Fc bait
Put plainly: ELISA, rhVISTA coated at 2 µg/mL, biotin-labelled rhVSIG3 titrated, streptavidin-HRP (FIG. 1A).
Description: The non-specific binding is subtracted and in all cases was less than 5% of the total signal.

Assay [4] concerns the target B1. The assay can be described thus: SPR (Biacore), VSIG3-Fc immobilised, antibody as analyte (FIG. 14). The protocol:
The affinity of these blocking antibodies to purified recombinant VSIG3 was measured by surface plasmon resonance (SPR) using a Biacore T200 in two assay orientations. […] Dilutions of antibody were then flowed over the surface and the double reference subtracted data fit to a 1:1 Langmuir binding model with Biacore T200 Evaluation Software version 3.1 (FIG. 14). In a separate assay, a fusion protein containing protein A/G/L (Novus Biologicals, Littleton, Colo.) was covalently immobilized to the surface of a CM5 chip by standard amine coupling chemistry. Antibody was captured, followed by dilutions of VSIG3 His-fusion. Double reference subtracted data were fit to a 1:1 Langmuir binding model as described above (FIG. 15).
A general note: In SPR one partner is held on a chip, and binding of the other changes the refractive index at the surface.

Assay [5] concerns the target T2, VSIG3 ectodomain coupled to …. Put plainly: AVEXIS, VSIG8 Fc-fusion bait, VSIG3-COMP-AP prey (FIG. 12B).
Description: as §1, §2

For B1, the binding result in assay [1] and in assay [2] was “no binding” each time. In addition, the concentration giving a half-maximal response (EC50) (usually the concentration that produces a half-maximal response) in assay [3] was roughly 0.25 µg/mL. On to B2, for which the binding result in assay [4] was “binds”.

For the molecule B3, the binding result in assay [4] is given as “binds”. Take B4: in assay [5], the binding result is given as “no binding”.
